From paper PMC10655381 come the findings set out here.

Usually stoichiometry N stands for the number of molecules, sites or subunits per partner or assembly.

The target in this assay is recombinant glycerol dehydratase 2eGDHt αβγ heterotrimer from Klebsiella pneumoniae 2e (Klebsiella pneumoniae 2e) (UniProt Q59476). Description: native gel or EMSA; Native-PAGE of purified recombinant 2eGDHt; heterotrimer to dimer of heterotrimers. (A gel shift assay detects complexes by their altered migration in electrophoresis.)

Consider “recombinant glycerol dehydratase 2eGDHt αβγ heterotrimer from Klebsiella pneumoniae 2e (from UniProt Q59476 1-555; A6TE99 1-194; Q59475 1-141) (complex)”, for which the stoichiometry N was 2.
